Measurements as given in the supplement of paper PMC7125110.
± gives the standard error. For part of these data: Variants at the floor of the assay were thinned out.

B1: glmS ribozyme (parent)
chain: AUAAAAGCGCCAGAACUACAGAAAUGUAGUUGACGAGGAGGAGGUUUAUCGAAUUUUCGGCGGAUGCCUCCAAA

Key:
Conditions in all cases: with glucosamine-6-phosphate
glucosamine-6-phosphate [1] = variants of: B1; test: kcat; higher = faster cleavage; RNA array
Method in brief: (§1)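 Barcoded ribozyme variants on sequenced MiSeq chips were transcribed in situ by E. coli RNA polymerase and followed at 37 °C through a hybridised Cy3 probe. Glucosamine-6-phosphate at 40 μM to 10 mM in HEPES/KCl/Mg(OAc)2 buffer was flowed in, and tiles were imaged over ~14 h. Signals were normalised to baseline and to non-cleaving reference variants, and per-tile medians were fit to one- or two-exponential decays to give kobs. Weighted Michaelis–Menten fits across concentrations gave kcat and KM.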

glucosamine-6-phosphate [2] = variants of: B1; test: KM; higher = weaker cofactor use; RNA array
Method in brief: as §1

glucosamine-6-phosphate [3] = variants of: B1; test: self-cleavage kobs at 640 uM GlcN6P; higher = faster cleavage; RNA array
Method in brief: as §1

glucosamine-6-phosphate [4] = variants of: B1; test: self-cleavage kobs at 2500 uM GlcN6P; higher = faster cleavage; RNA array
Method in brief: as §1

glucosamine-6-phosphate [5] = variants of: B1; test: self-cleavage kobs at 10000 uM GlcN6P; higher = faster cleavage; RNA array
Method in brief: as §1

glucosamine-6-phosphate [6] = variants of: B1; test: self-cleavage kobs at 40 uM GlcN6P; higher = faster cleavage; RNA array
Method in brief: as §1

glucosamine-6-phosphate [7] = variants of: B1; test: self-cleavage kobs at 160 uM GlcN6P; higher = faster cleavage; RNA array
Method in brief: as §1

| Variant | kcat (glucosamine-6-phosphate [1]) [s⁻¹] | KM (glucosamine-6-phosphate [2]) [µM] | self-cleavage kobs at 640 uM GlcN6P (glucosamine-6-phosphate [3]) [s⁻¹] | self-cleavage kobs at 2500 uM GlcN6P (glucosamine-6-phosphate [4]) [s⁻¹] | self-cleavage kobs at 10000 uM GlcN6P (glucosamine-6-phosphate [5]) [s⁻¹] | self-cleavage kobs at 40 uM GlcN6P (glucosamine-6-phosphate [6]) [s⁻¹] | self-cleavage kobs at 160 uM GlcN6P (glucosamine-6-phosphate [7]) [s⁻¹] |
| --- | --- | --- | --- | --- | --- | --- | --- |
| A15C G32C | 0.000182 ± 5.4e-06 | 3300 ± 240 | 3.08e-05 ± 1e-05 | 7.51e-05 ± 2e-05 | 0.000138 ± 1.7e-05 |  |  |
| A15C G32U | 0.00121 ± 6.6e-05 | 6690 ± 540 | 0.000107 ± 1.4e-05 | 0.000321 ± 4.8e-05 | 0.000731 ± 7.6e-05 |  |  |
| A15C U31G | 0.00453 ± 0.0018 |  |  | 0.00159 ± 0.00063 | 0.00376 ± 0.0012 | 8.5e-05 ± 3.2e-05 | 0.000187 ± 5.2e-05 |
| A15C U31A | 0.00691 ± 0.0013 | 1860 ± 480 | 0.0015 ± 0.00035 | 0.00303 ± 0.00078 | 0.0067 ± 0.001 | 0.000156 ± 2.2e-05 | 0.000607 ± 0.00013 |
| A14C U47A | 0.00403 ± 0.00081 | 2760 ± 760 | 0.000676 ± 8.4e-05 | 0.00184 ± 0.0002 | 0.00348 ± 0.00048 | 7.39e-05 ± 9.6e-06 | 0.000213 ± 3.2e-05 |
| A15C U55G | 0.00196 ± 0.00085 |  |  | 0.00118 ± 0.0002 | 0.00334 ± 0.00064 | 0.000128 ± 3e-05 | 0.000255 ± 4.7e-05 |
| A15C U55A | 0.00649 ± 0.0016 | 1920 ± 650 | 0.00128 ± 0.00023 | 0.00484 ± 0.00095 | 0.0054 ± 0.00095 | 0.000161 ± 2.8e-05 | 0.000516 ± 8.7e-05 |
| A14U U54G | 0.00917 ± 0.0032 |  | 0.00128 ± 0.00026 | 0.00387 ± 0.00047 | 0.00759 ± 0.00076 | 0.000217 ± 2.4e-05 | 0.000382 ± 6.2e-05 |
| A14U U54C | 0.00754 ± 0.0024 | 1830 ± 830 | 0.00201 ± 0.00026 | 0.00338 ± 0.00053 | 0.00856 ± 0.0012 | 0.00021 ± 2.8e-05 | 0.000513 ± 8.8e-05 |
| A14G A42C | 3.47e-05 ± 2.4e-06 | 1730 ± 410 |  | 1.97e-05 ± 9.6e-06 | 2.99e-05 ± 1e-05 |  |  |
| A15C A52U | 0.000104 ± 4.8e-06 | 1830 ± 260 |  | 6.2e-05 ± 1.7e-05 | 8.65e-05 ± 1.9e-05 |  |  |
| A14C U56A | 0.00449 ± 0.0013 | 3990 ± 1600 | 0.000559 ± 6.3e-05 | 0.00196 ± 0.00028 | 0.00318 ± 0.00032 | 7.03e-05 ± 9e-06 | 0.000133 ± 2.8e-05 |
| A14C U46A | 0.000352 ± 1.6e-05 | 1880 ± 170 | 9.13e-05 ± 1e-05 | 0.000194 ± 2.1e-05 | 0.000301 ± 3.2e-05 |  |  |
| A14C U46C | 0.000346 ± 4.7e-05 | 1090 ± 350 | 0.000128 ± 2.4e-05 |  | 0.000326 ± 4.5e-05 |  | 5.14e-05 ± 1.9e-05 |
| A14C U46G | 0.000823 ± 0.00019 | 1630 ± 660 | 0.000209 ± 2.4e-05 | 0.000478 ± 4.8e-05 | 0.000795 ± 0.0001 | 4.79e-05 ± 1.2e-05 | 8.78e-05 ± 1.5e-05 |
| A14U U69G | 3.85e-05 ± 7.5e-06 |  |  | 3.53e-05 ± 6.6e-06 | 3.9e-05 ± 8.1e-06 |  | 4.67e-05 ± 1.3e-05 |
| A15G A36U | < 1e-05 |  | < 1e-05 |  |  |  | < 1e-05 |
| A14U U30G | 0.00494 ± 0.00089 | 2220 ± 540 | 0.000998 ± 0.0001 | 0.0033 ± 0.00052 | 0.00404 ± 0.00036 | 0.000104 ± 8.8e-06 | 0.000282 ± 3.6e-05 |
| A15C G29C G37A C61U | < 1e-05 |  |  |  |  |  |  |
| A14U G62A C70G | 5.52e-05 ± 1.4e-05 |  | 5.47e-05 ± 2e-05 |  |  |  |  |
| A15C U49G | 0.000113 ± 1.2e-05 | 1520 ± 550 |  | 8.06e-05 ± 2.4e-05 | 9.51e-05 ± 1.9e-05 |  |  |
| A14G A15U U30G | 0.0196 ± 0.0037 | 263 ± 69 | 0.0127 ± 0.0037 | 0.0232 ± 0.0085 |  | 0.00266 ± 0.00038 | 0.00652 ± 0.0021 |
| A14G G29U U47G C70G | 8.6e-05 ± 1.6e-05 |  | 0.000119 ± 3.1e-05 | 6.72e-05 ± 1.5e-05 | 0.000118 ± 2.8e-05 |  |  |
| A14U C16G | 0.000881 ± 0.00019 | 1840 ± 670 | 0.000263 ± 3.3e-05 | 0.000429 ± 6.7e-05 | 0.000865 ± 0.00015 |  | 5.83e-05 ± 1.7e-05 |
| A15C C61U | < 1e-05 |  | < 1e-05 |  |  | < 1e-05 | < 1e-05 |
| A14U G51U | < 1e-05 |  | < 1e-05 |  | < 1e-05 | < 1e-05 |  |
| A14U A48G | 1.29e-05 ± 5.7e-06 |  |  |  |  |  | < 1e-05 |
| A14U U55C | 0.00666 ± 0.0014 | 1760 ± 500 | 0.00161 ± 0.00025 | 0.00352 ± 0.00053 | 0.0066 ± 0.001 | 0.000181 ± 2.3e-05 | 0.000488 ± 8.3e-05 |
| A14U U55G | 0.00848 ± 0.0029 | 2280 ± 1100 | 0.00176 ± 0.00023 | 0.0041 ± 0.00047 | 0.0105 ± 0.0021 | 0.000209 ± 3.1e-05 | 0.000508 ± 8e-05 |
